# Measured values: PMC11467436, “Novel mechanisms of MITF regulation identified in a mouse suppressor screen”
# B1: M-box smFRET probe (dsDNA)
# DNA 1: GAGATCATGTGTTGA
# DNA 2: TCAACACATGATCTC
# modifications: 5' C6-amino linker on both strands
# Assays:
# Conditions in all cases: protein: recombinant; tags: none (His6-SUMO removed by ULP-1); unlabeled; chain copies: 2; label: Cy3B (5' positive strand); CF660R (5' negative strand); blunt
# hMITF-sp [1] = molecular target: T1, hMITF-sp (Homo sapiens, UniProt O75030-10 1-413); assay: FCS; 300 mM KCl; Single-molecule: 0.5 nM DNA, 10 mM Tris pH 7.4, 0.1 mM EDTA, 165 or 300 mM KCl, 1 mM MgCl2, 143 mM 2-ME, 0.01% Tween-20, 0.1 mg/mL BSA. EMSA: 10 mM Hepes pH 7.9, 50 mM NaCl, 5 mM MgCl2, 0.1 mM EDTA, 2 mM DTT, 5% ethylene glycol, 5% glycerol, BSA, 30 min on ice
# T1 sequence (O75030 other isoform, or with tags, fused parts or gaps): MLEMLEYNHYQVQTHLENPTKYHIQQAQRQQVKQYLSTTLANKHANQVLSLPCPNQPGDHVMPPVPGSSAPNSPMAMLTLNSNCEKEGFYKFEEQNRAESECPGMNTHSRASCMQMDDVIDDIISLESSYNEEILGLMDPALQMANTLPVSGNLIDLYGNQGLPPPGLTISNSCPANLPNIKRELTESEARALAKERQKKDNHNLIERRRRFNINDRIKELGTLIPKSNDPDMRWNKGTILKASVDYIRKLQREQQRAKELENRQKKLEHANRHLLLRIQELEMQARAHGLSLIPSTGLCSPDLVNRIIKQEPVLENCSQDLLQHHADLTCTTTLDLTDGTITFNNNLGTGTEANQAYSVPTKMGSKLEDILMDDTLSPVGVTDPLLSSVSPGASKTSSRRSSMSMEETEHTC
# hMITF-sl [2] = molecular target: T2, hMITF-sl (Homo sapiens, UniProt O75030-10 1-309); assay: as above
# T2 sequence (O75030 other isoform, or with tags, fused parts or gaps): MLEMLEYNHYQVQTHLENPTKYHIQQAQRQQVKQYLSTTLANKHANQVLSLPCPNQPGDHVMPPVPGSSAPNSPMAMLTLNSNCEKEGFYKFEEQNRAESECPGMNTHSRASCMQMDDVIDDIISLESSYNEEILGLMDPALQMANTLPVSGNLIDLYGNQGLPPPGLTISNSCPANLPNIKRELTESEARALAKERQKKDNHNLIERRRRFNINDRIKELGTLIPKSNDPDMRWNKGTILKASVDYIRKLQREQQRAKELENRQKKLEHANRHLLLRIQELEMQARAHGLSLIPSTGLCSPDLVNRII
# hMITF-WT [3] = molecular target: T3, hMITF-WT (Homo sapiens, UniProt O75030-9 1-419); assay: as above
# T3 sequence (O75030 other isoform, or with tags, fused parts or gaps): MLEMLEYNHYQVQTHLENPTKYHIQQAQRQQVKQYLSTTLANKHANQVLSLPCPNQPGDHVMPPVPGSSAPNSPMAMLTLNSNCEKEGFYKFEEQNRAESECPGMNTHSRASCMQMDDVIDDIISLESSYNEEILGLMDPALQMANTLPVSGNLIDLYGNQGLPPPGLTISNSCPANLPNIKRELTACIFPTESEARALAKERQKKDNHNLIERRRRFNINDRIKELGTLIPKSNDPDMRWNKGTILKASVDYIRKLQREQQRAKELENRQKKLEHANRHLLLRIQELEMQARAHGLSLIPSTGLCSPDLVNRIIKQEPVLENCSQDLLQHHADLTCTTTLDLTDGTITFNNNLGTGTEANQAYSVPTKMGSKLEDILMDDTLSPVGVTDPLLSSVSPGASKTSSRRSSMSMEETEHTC
# hMITF-sp [4] = molecular target: T1, hMITF-sp; assay: single-molecule fluorescence anisotropy; 300 mM KCl; Single-molecule: 0.5 nM DNA, 10 mM Tris pH 7.4, 0.1 mM EDTA, 165 or 300 mM KCl, 1 mM MgCl2, 143 mM 2-ME, 0.01% Tween-20, 0.1 mg/mL BSA. EMSA: 10 mM Hepes pH 7.9, 50 mM NaCl, 5 mM MgCl2, 0.1 mM EDTA, 2 mM DTT, 5% ethylene glycol, 5% glycerol, BSA, 30 min on ice
# hMITF-sl [5] = molecular target: T2, hMITF-sl; assay: as above
# hMITF-WT [6] = molecular target: T3, hMITF-WT; assay: as above
# hMITF-sp [7] = molecular target: T1, hMITF-sp; assay: smFRET; 300 mM KCl; Single-molecule: 0.5 nM DNA, 10 mM Tris pH 7.4, 0.1 mM EDTA, 165 or 300 mM KCl, 1 mM MgCl2, 143 mM 2-ME, 0.01% Tween-20, 0.1 mg/mL BSA. EMSA: 10 mM Hepes pH 7.9, 50 mM NaCl, 5 mM MgCl2, 0.1 mM EDTA, 2 mM DTT, 5% ethylene glycol, 5% glycerol, BSA, 30 min on ice
# hMITF-sl [8] = molecular target: T2, hMITF-sl; assay: as above
# hMITF-WT [9] = molecular target: T3, hMITF-WT; assay: as above
binder,measurement,setting,value
B1,Kd,hMITF-sp [1],5.8 ± 3.5 nM
same,Kd,hMITF-sl [2],3.1 ± 1.6 nM
same,Kd,hMITF-WT [3],4.5 ± 1.4 nM
same,Kd,hMITF-sp [4],1 ± 0.4 nM
same,Kd,hMITF-sl [5],0.9 ± 0.4 nM
same,Kd,hMITF-WT [6],1.9 ± 0.6 nM
same,Kd,hMITF-sp [7],1.7 ± 0.9 nM
same,Kd,hMITF-sl [8],1.6 ± 0.5 nM
same,Kd,hMITF-WT [9],1.6 ± 1.4 nM
